Measurements as given in publication PMC12416549 (2024).

T1: TNFR1 (Homo sapiens, UniProt P19438)
T1 chain: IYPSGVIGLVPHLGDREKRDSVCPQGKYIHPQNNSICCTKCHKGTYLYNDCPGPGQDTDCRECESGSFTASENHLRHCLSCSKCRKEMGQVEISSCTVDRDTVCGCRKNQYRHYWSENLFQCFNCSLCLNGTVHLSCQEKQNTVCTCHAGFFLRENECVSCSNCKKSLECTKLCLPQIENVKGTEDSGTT

B1: R14T (designed binder)
chain: MTLQELLREEALRTAEAEAFRYALELLAEKFPEQKEYLLDLAEEIESQIRSLSGVDVEDVRKFLDKEWAWVKELLAEHPAELAEVEAARAARLAELRAEVEAKVAA
B2: H78R (designed binder)
chain: MTLQELLREEALRRAEAEAFRYALELLAEKFPEQKEYLLDLAEEIESQIRSLSGVDVEDVRKFLDKEWAWVKELLAERPAELAEVEAARAARLAELRAEVEAKVAA
B3: A23V (designed binder)
chain: MTLQELLREEALRRAEAEAFRYVLELLAEKFPEQKEYLLDLAEEIESQIRSLSGVDVEDVRKFLDKEWAWVKELLAEHPAELAEVEAARAARLAELRAEVEAKVAA
B4: R97T (designed binder)
chain: MTLQELLREEALRRAEAEAFRYALELLAEKFPEQKEYLLDLAEEIESQIRSLSGVDVEDVRKFLDKEWAWVKELLAEHPAELAEVEAARAARLAELTAEVEAKVAA
B5: A80L (designed binder)
chain: MTLQELLREEALRRAEAEAFRYALELLAEKFPEQKEYLLDLAEEIESQIRSLSGVDVEDVRKFLDKEWAWVKELLAEHPLELAEVEAARAARLAELRAEVEAKVAA
B6: A105F (designed binder)
chain: MTLQELLREEALRRAEAEAFRYALELLAEKFPEQKEYLLDLAEEIESQIRSLSGVDVEDVRKFLDKEWAWVKELLAEHPAELAEVEAARAARLAELRAEVEAKVFA
B7: K66W (designed binder)
chain: MTLQELLREEALRRAEAEAFRYALELLAEKFPEQKEYLLDLAEEIESQIRSLSGVDVEDVRKFLDWEWAWVKELLAEHPAELAEVEAARAARLAELRAEVEAKVAA
B8: L3V (designed binder)
chain: MTVQELLREEALRRAEAEAFRYALELLAEKFPEQKEYLLDLAEEIESQIRSLSGVDVEDVRKFLDKEWAWVKELLAEHPAELAEVEAARAARLAELRAEVEAKVAA
B9: R21Q (designed binder)
chain: MTLQELLREEALRRAEAEAFQYALELLAEKFPEQKEYLLDLAEEIESQIRSLSGVDVEDVRKFLDKEWAWVKELLAEHPAELAEVEAARAARLAELRAEVEAKVAA
B10: L93F (designed binder)
chain: MTLQELLREEALRRAEAEAFRYALELLAEKFPEQKEYLLDLAEEIESQIRSLSGVDVEDVRKFLDKEWAWVKELLAEHPAELAEVEAARAARFAELRAEVEAKVAA
B11: H78V (designed binder)
chain: MTLQELLREEALRRAEAEAFRYALELLAEKFPEQKEYLLDLAEEIESQIRSLSGVDVEDVRKFLDKEWAWVKELLAEVPAELAEVEAARAARLAELRAEVEAKVAA
B12: R92W (designed binder)
chain: MTLQELLREEALRRAEAEAFRYALELLAEKFPEQKEYLLDLAEEIESQIRSLSGVDVEDVRKFLDKEWAWVKELLAEHPAELAEVEAARAAWLAELRAEVEAKVAA
B13: I45S (designed binder)
chain: MTLQELLREEALRRAEAEAFRYALELLAEKFPEQKEYLLDLAEESESQIRSLSGVDVEDVRKFLDKEWAWVKELLAEHPAELAEVEAARAARLAELRAEVEAKVAA
B14: A102S (designed binder)
chain: MTLQELLREEALRRAEAEAFRYALELLAEKFPEQKEYLLDLAEEIESQIRSLSGVDVEDVRKFLDKEWAWVKELLAEHPAELAEVEAARAARLAELRAEVESKVAA
B15: A28L (designed binder)
chain: MTLQELLREEALRRAEAEAFRYALELLLEKFPEQKEYLLDLAEEIESQIRSLSGVDVEDVRKFLDKEWAWVKELLAEHPAELAEVEAARAARLAELRAEVEAKVAA
B16: A17K (designed binder)
chain: MTLQELLREEALRRAEKEAFRYALELLAEKFPEQKEYLLDLAEEIESQIRSLSGVDVEDVRKFLDKEWAWVKELLAEHPAELAEVEAARAARLAELRAEVEAKVAA
B17: R50T (designed binder)
chain: MTLQELLREEALRRAEAEAFRYALELLAEKFPEQKEYLLDLAEEIESQITSLSGVDVEDVRKFLDKEWAWVKELLAEHPAELAEVEAARAARLAELRAEVEAKVAA
B18: L27S (designed binder)
chain: MTLQELLREEALRRAEAEAFRYALELSAEKFPEQKEYLLDLAEEIESQIRSLSGVDVEDVRKFLDKEWAWVKELLAEHPAELAEVEAARAARLAELRAEVEAKVAA
B19: V85N (designed binder)
chain: MTLQELLREEALRRAEAEAFRYALELLAEKFPEQKEYLLDLAEEIESQIRSLSGVDVEDVRKFLDKEWAWVKELLAEHPAELAENEAARAARLAELRAEVEAKVAA
B20: A94E (designed binder)
chain: MTLQELLREEALRRAEAEAFRYALELLAEKFPEQKEYLLDLAEEIESQIRSLSGVDVEDVRKFLDKEWAWVKELLAEHPAELAEVEAARAARLEELRAEVEAKVAA
B21: Y22H (designed binder)
chain: MTLQELLREEALRRAEAEAFRHALELLAEKFPEQKEYLLDLAEEIESQIRSLSGVDVEDVRKFLDKEWAWVKELLAEHPAELAEVEAARAARLAELRAEVEAKVAA
B22: E29I (designed binder)
chain: MTLQELLREEALRRAEAEAFRYALELLAIKFPEQKEYLLDLAEEIESQIRSLSGVDVEDVRKFLDKEWAWVKELLAEHPAELAEVEAARAARLAELRAEVEAKVAA
B23: A88M (designed binder)
chain: MTLQELLREEALRRAEAEAFRYALELLAEKFPEQKEYLLDLAEEIESQIRSLSGVDVEDVRKFLDKEWAWVKELLAEHPAELAEVEAMRAARLAELRAEVEAKVAA
B24: R89W (designed binder)
chain: MTLQELLREEALRRAEAEAFRYALELLAEKFPEQKEYLLDLAEEIESQIRSLSGVDVEDVRKFLDKEWAWVKELLAEHPAELAEVEAAWAARLAELRAEVEAKVAA
B25: A76Y (designed binder)
chain: MTLQELLREEALRRAEAEAFRYALELLAEKFPEQKEYLLDLAEEIESQIRSLSGVDVEDVRKFLDKEWAWVKELLYEHPAELAEVEAARAARLAELRAEVEAKVAA
B26: L82E (designed binder)
chain: MTLQELLREEALRRAEAEAFRYALELLAEKFPEQKEYLLDLAEEIESQIRSLSGVDVEDVRKFLDKEWAWVKELLAEHPAEEAEVEAARAARLAELRAEVEAKVAA
B27: R97W (designed binder)
chain: MTLQELLREEALRRAEAEAFRYALELLAEKFPEQKEYLLDLAEEIESQIRSLSGVDVEDVRKFLDKEWAWVKELLAEHPAELAEVEAARAARLAELWAEVEAKVAA
B28: A94H (designed binder)
chain: MTLQELLREEALRRAEAEAFRYALELLAEKFPEQKEYLLDLAEEIESQIRSLSGVDVEDVRKFLDKEWAWVKELLAEHPAELAEVEAARAARLHELRAEVEAKVAA
B29: E77D (designed binder)
chain: MTLQELLREEALRRAEAEAFRYALELLAEKFPEQKEYLLDLAEEIESQIRSLSGVDVEDVRKFLDKEWAWVKELLADHPAELAEVEAARAARLAELRAEVEAKVAA
B30: L7N (designed binder)
chain: MTLQELNREEALRRAEAEAFRYALELLAEKFPEQKEYLLDLAEEIESQIRSLSGVDVEDVRKFLDKEWAWVKELLAEHPAELAEVEAARAARLAELRAEVEAKVAA
B31: F63N (designed binder)
chain: MTLQELLREEALRRAEAEAFRYALELLAEKFPEQKEYLLDLAEEIESQIRSLSGVDVEDVRKNLDKEWAWVKELLAEHPAELAEVEAARAARLAELRAEVEAKVAA
B32: E29D (designed binder)
chain: MTLQELLREEALRRAEAEAFRYALELLADKFPEQKEYLLDLAEEIESQIRSLSGVDVEDVRKFLDKEWAWVKELLAEHPAELAEVEAARAARLAELRAEVEAKVAA
B33: A23D (designed binder)
chain: MTLQELLREEALRRAEAEAFRYDLELLAEKFPEQKEYLLDLAEEIESQIRSLSGVDVEDVRKFLDKEWAWVKELLAEHPAELAEVEAARAARLAELRAEVEAKVAA
B34: L75P (designed binder)
chain: MTLQELLREEALRRAEAEAFRYALELLAEKFPEQKEYLLDLAEEIESQIRSLSGVDVEDVRKFLDKEWAWVKELPAEHPAELAEVEAARAARLAELRAEVEAKVAA

Biological target: T1, TNFR1
Experiment: yeast display SC50

B1 and B2 are the same in “apparent Kd (screen)” value: 490 pM for the first, 490 pM for the second.

B3 and B4 are within 1.5-fold of each other in “apparent Kd (screen)” value: 653 pM for the first, 539 pM for the second.

First: B5
Second: B6
The “apparent Kd (screen)” value of the first is 1.9-fold lower: 446 pM for the first, 869 pM for the second.

B7 and B8 are within 1.5-fold of each other in “apparent Kd (screen)” value: 539 pM for the first, 593 pM for the second.

B9 and B10 are the same in “apparent Kd (screen)” value: 539 pM for the first, 539 pM for the second.

First: B11
Second: B12
The “apparent Kd (screen)” value of the first is 1.6-fold higher: 869 pM for the first, 539 pM for the second.

First: B13
Second: B14
The “apparent Kd (screen)” value of the first is 9.8-fold higher: 7780 pM for the first, 790 pM for the second.

First: B15
Second: B16
The “apparent Kd (screen)” value of the first is 17-fold higher: 20200 pM for the first, 1160 pM for the second.

B17 and B18 are within 1.5-fold of each other in “apparent Kd (screen)” value: 490 pM for the first, 593 pM for the second.

B19 and B20 are within 1.5-fold of each other in “apparent Kd (screen)” value: 653 pM for the first, 539 pM for the second.

Going from B21 to B22, the “apparent Kd (screen)” value rises from 490 pM to 1160 pM (2.4-fold).

B23 and B24 are within 1.5-fold of each other in “apparent Kd (screen)” value: 718 pM for the first, 956 pM for the second.

First: B25
Second: B26
The “apparent Kd (screen)” value of the first is 5.1-fold lower: 539 pM for the first, 2730 pM for the second.

B27 and B28 are within 1.5-fold of each other in “apparent Kd (screen)” value: 490 pM for the first, 446 pM for the second.

Going from B29 to B30, the “apparent Kd (screen)” value rises from 653 pM to 24400 pM (37-fold).

Going from B31 to B32, the “apparent Kd (screen)” value falls from 2050 pM to 490 pM (4.2-fold).

B33 and B34 are within 1.5-fold of each other in “apparent Kd (screen)” value: 2250 pM for the first, 2480 pM for the second.
